Data reported in US8323941B2, “Histone demethylation mediated by the nuclear amine oxidase homolog LSD1” (President and Fellows of Harvard College, priority 2004, dated 2012).

What was measured:
LSD1 target genes = test: RT-PCR of LSD1 target genes / mRNA in HeLa cells; assay type: cell-based, human; conditions: TSA treatment
Text: RT-PCR. Total RNA samples were isolated from 2×10^6 cells by Trizol reagent (Sigma). After DNase treatment, the RNA samples were purified by phenol-chloroform extraction and ethanol precipitation. 38 PCR cycles were used for SCN1A, SCN2A, SCN3A and M4 AchR and 28 PCR cycles for GAPDH. Primers used in RT-PCR were as follows: SCN1A up (5′-[…]-3′; SEQ ID NO: 1), down (5′-[…]-3′; SEQ ID NO: 2); SCN2A up (5′-[…]-3′; SEQ ID NO: 3), down (5′-[…]-3′; SEQ ID NO: 4) SCN3A up (5′-[…]-3′; SEQ ID NO: 5), down (5′-[…]-3′; SEQ ID NO: 6); p57^KIP2 up (5′-[…]-3′; SEQ ID NO: 7), down (5′-[…]-3′; SEQ ID NO: 8); GAPDH up (5′-[…]-3′; SEQ ID NO: 9), down (5′-[…]-3′; SEQ ID NO: 10).
(§1) Knockdown LSD, CoREST and Proteasome inhibitor (PI) treatment. Stable cell lines which express mutant GFP-shRNA, CtBP-shRNA, LSD1-shRNA or CoREST-shRNA were generated as previously described (Shi et al., 2003; Sui et al., 2002). To prevent proteasome-mediated protein degradation, the cells were treated with ZL3VS at final concentration 10 μM for 24 hours in culture then harvested. The protein and mRNA levels of the shRNA-knockdown cells with or without PI treatment were estimated by Western blotting and RT-PCR as previously described (Shi et al., 2004).

LSD1 [1] = target: LSD1 (Homo sapiens, UniProt O60341); test: LSD1 demethylation assay on nucleosomal substrates (mononucleosomes), Western blotting; assay type: biochemical; set-up: Full length (1-851aa) and C-terminal deleted (1-427 aa) human LSD1 cDNAs; 6xHis (N); made in house; host or cells: bacteria; conditions: for stimulation of LSD1 demethylation activity: CoREST deletion mutants
Method: Preparation of mononucleosome. Mononucleosome was made according to a standard protocol (Tagami et al., 2004; Utley et al., 1996). Briefly, nuclear pellet from both TSA-treated or non-treated HeLa cells was homogenized for 60 times with type A pestle to obtain oligo-nucleosomes. The oligo-nucleosomes were then digested with micrococcal nuclease (40 units/mL) for 10 mins at 30° C. The nuclease is inactivated by 5 mM EDTA. Digested materials were spun at 14000 rpm for 3 mins. Resulting supernatant was spun again for additional 3 mins at the same speed. Supernatant from the second spin was subject to 10-25% glycerol gradient sedimentation. The monocleosome-containing fractions were identified by examining aliquots of fractions (treated with proteinase K) on DNA agarose gel. An aliquot of TSA-treated or non TSA-treated mononucleosome, a kind gift from Dr. Yoshihiro Nakatani's Lab in Dana Faber Cancer Institute, Harvard Medical School (Tagami et al., 2004), was used here as a control for the quality of mononucleosome made in our lab.
Demethylation assay. LSD1 demethylation activity on free histone or nucleosomal histone was carried out as previously reported (Shi et al., 2004). Briefly, bulk histones or mononucleosomes were incubated with purified His-LSD1 with or without purified His-CoREST, His-CoREST mutants, His-BHC80 and/or GST-HDAC1 in the histone demethylase activity (HDM) assay buffer (50 mM Tris pH8.5, 50 mM KCl, 5 mM MgCl, 0.5% BSA and 5% glycerol) from 10 mins up to 1 hour at 37° C. The demethylase activity of LSD1 under various conditions was evaluated by Western blotting using K4-H3 methylation-specific antibodies.

SCN2A = conditions: Rat-1 fibroblast cells, TSA treatment; cited from earlier work
LSD1 [2] = test: LSD1 protein level in knockdown cells (immunostaining, Western blotting); assay type: cell-based, human; conditions: CoREST shRNA treated cells; 10 μM for 24 hours
Method: as §1

GST-LSD1 = target: T1, GST-LSD1 (Homo sapiens, UniProt O60341); test: GST pulldown of HIS-tagged CoREST and mutants; assay type: binding; conditions: Coomassie Blue staining
T1 construct: made in house; host or cells: bacteria (inferred from 'similar procedure' to the His-tagged proteins)
Method: To identify domains of CoREST that are involved in physical interactions with LSD1, GST-LSD1 or GST was incubated with bacterially purified, HIS-tagged CoREST and its mutant derivatives. […] This places the putative LSD1-binding domain within the C-terminal functional domain of CoREST, somewhere between aa 293-381 of CoREST. […] We therefore speculate that the SANT2 domain may be involved in mediate binding to the nucleosomal substrate. Taken together, these findings are consistent with the idea that CoREST functions as a bridging protein. The weak stimulatory activity of the N-terminal CoREST (del1, aa 1-293) remains unclear at the present time.
GST and GSTLSD1 plamsids were kind gifts from Dr. Tadashi Baba's Lab in Japan (Iwase et al., 2004). Expression and purification of GST and GSTLSD1 proteins were done using similar procedure as outlined for purification of his-tagged recombinant proteins. For GST-bead pulldown experiment, 2 μg of each purified his-tagged wt or del CoREST proteins were incubated with 5 μg of bound GST and GSTLSD1 proteins at 4° C. for 4 hrs in a binding buffer (50 mM Tris, pH 8.0, 300 mM NaCl, 1 mM DTT, 0.5 mM EDTA and 0.1% NP-40). The beads were washed 3 times in the binding buffer, resuspended in 2×SDS protein sample buffer, boiled for 5 mins and loaded onto 15% SDS PAGE gel. The gel was then stained with Coomassie Blue.

HIS-LSD1 [3] = target: T2, HIS-LSD1 (Homo sapiens, UniProt O60341); test: Demethylation-FDH coupled spectrophotometric assay (formaldehyde formation); assay type: biochemical; set-up: Full length (1-851aa) and C-terminal deleted (1-427 aa) human LSD1 cDNAs; 6xHis (N); made in house; conditions: for formaldehyde production (absorbance at OD 340 nm): peptide used as substrate of HIS-LSD1
Text: We used a third independent method to investigate the possibility that LSD1 is a histone demethylase. […] To determine whether formaldehyde was produced in LSD1-mediated enzymatic reactions, we first used the formaldehyde dehydrogenase (FDH) assay to detect the presence of formaldehyde (Lizcano et al., 2000). This assay employs formaldehyde dehydrogenase to convert formaldehyde to formic acid using NAD^+ as the electron acceptor, whose reduction to NADH can be spectrophotometrically measured at OD 340 nm. Thus, when the demethylation reaction is coupled with the FDH assay, the enzymatic activity of LSD1 and reaction kinetics can be determined by measuring the production of NADH. A standard curve was first generated using purified FDH (EC 1.2.1.46), NAD^+ and different concentrations of formaldehyde ranging from 1 μM to 10 mM, within which a linear relationship was found between the production of NADH and the range of formaldehyde used in the assay. Subsequently, the coupled demethylation-FDH assays were carried out within this linear range and were initiated with the addition of the diMeK4H3 substrates. The continuous production of the formaldehyde as the demethylation proceeded was monitored by OD measurement at 340 nm at different time points. […] We next used the demethylation-FDH coupled spectrophotometric assay as another independent means to investigate the substrate specificity of LSD1.
Formaldehyde Dehydrogenase (FDH) assay. Formaldehyde formation was continuously monitored by a coupled spectrophotometric assay (Lizcano et al., 2000) using formaldehyde dehydrogenase (FDH). […] The absorbance at 340 nm (ε340=6.22 mM^−1 cm^−1 for NADH) was measured at each time point in a 0.5 min interval using Beckman DU640 spectrophotometer. The OD 340 nm absorbance at the moment of the substrate addition was considered as 0 and this was used as the 0 min time point. Over a 10 min period, a kinetic software program automatically recorded the absorbance at each time point. The data were analyzed using the Excel program. […]

HIS-LSD1 [4] = target: T2, HIS-LSD1; test: Demethylase assay on histone H3 peptides, Western blotting with methyl-specific antibodies; assay type: biochemical; set-up: Full length (1-851aa) and C-terminal deleted (1-427 aa) human LSD1 cDNAs; 6xHis (N); made in house; host or cells: bacteria (IPTG induction); conditions: 1 μg LSD1, 1 nmole peptide; modification-specific antibody
Text: LSD1 is a flavin-containing protein based on its ability to bind FAD ((Humphrey et al., 2001), and data not shown). Its sequence homology with amine oxidases predicts that LSD1 may catalyze oxidation reactions of biogenic amines including monoamine, polyamines or N-methylated protein substrates (such as histones) (Bannister et al., 2002). Amine oxidation catalyzed by flavin-containing amine oxidase is characterized by oxidative cleavage of the a-carbon bond of the substrate to form an imine intermiediate, which, in turn, is hydrolyzed to form an aldehyde and amine via a non-enzymatic process. In a complete catalytic cycle, the cofactor FAD is reduced to FADH2 and then is likely to be re-oxidized by oxygen to produce hydrogen peroxide (Binda et al., 2002). […] The HIS-LSD1 proteins were incubated with histone H3 peptides carrying dimethylated K4 (diMeK4H3) or K9 (diMeK9H3) and the methylation status was determined using a diMeK4H3 or diMeK9H3 specific antibody, respectively. […]
Demethylase assay. […] The reaction mixture was analyzed by SDS-PAGE/Western blotting using methyl-specific antibodies, or by formaldehyde formation assay to examine the removal and conversion of the methyl group to formaldehyde, or by mass spectrometry to identify the demethylated peptide.

Q: For `CC(/C=C/C(=O)NO)=C\[C@@H](C)C(=O)c1ccc(N(C)C)cc1` [TSA, Trichostatin A], which “expression of LSD1 target genes SCNA2 and SCNA3” value (LSD1 target genes) is on record?
A: Its value is “de-repression”.

Q: And the “difference in CoREST/LSD1-mediated demethylation, untreated vs TSA-treated nucleosomes” value (LSD1 [1]; hyperacetylated nucleosomes isolated from TSA-treated HeLa cells, less susceptible)?
A: The value was “approximately 4 fold”.

Q: What about the SCN2A expression (SCN2A) of the same compound?
A: The SCN2A expression was “unaffected”.

Q: Which “LSD1 steady state level” value (LSD1 [2]) does the source give for `CC(C)C[C@@H](/C=C/S(C)(=O)=O)NC(=O)[C@H](CC(C)C)NC(=O)[C@H](CC(C)C)NC(=O)OCc1ccccc1` [ZL3VS] here?
A: The value was “restored the LSD1 steady state level”.

Q: Which “effect of added protein on ability of recombinant LSD1 to demethylate nucleosomal substrates” value (LSD1 [1]; bacterially purified protein added to recombinant LSD1) does the source give for “HDAC1: Bacterially purified histone deacetylase 1” here?
A: The value was “no effect”.

Q: With “del 3: CoREST deletion mutant aa 105-381” as the compound, how does the “binding to LSD1” value (GST-LSD1) read?
A: Its value is “bound LSD1”.

Q: And the “stimulation of LSD1 demethylation activity” value (LSD1 [1])?
A: The value was “fail to stimulate its activity”.

Q: Which “binding to LSD1” value (GST-LSD1) does the source give for “del 5: CoREST deletion mutant aa 293-381” here?
A: Its value is “bound LSD1”.

Q: And the “stimulation of LSD1 demethylation activity” value (LSD1 [1])?
A: The value was “fail to stimulate its activity”.

Q: Which “formaldehyde production (absorbance at OD 340 nm)” value (HIS-LSD1 [3]) does the source give for “diMeK4H3: Synthetic histone H3 peptide (1-21 aa) carrying dimethylated K4” here?
A: The value was “robust increase”.

Q: What about the Km (HIS-LSD1 [3]; purified HIS-LSD1, Lineweaver-Burk transformation, read-out: apparent Km for the diMeK4H3 substrates) of the same compound?
A: Its Km is about 30 µM.

Q: What about the “dimethylation level of H3 peptide after incubation with LSD1” value (HIS-LSD1 [4]) of the same compound?
A: Its value is “effectively reduced dimethylation level at K4”.

Q: With “diMeK9H3: Synthetic histone H3 peptide (1-21aa) carrying dimethylated K9” as the compound, how does the “formaldehyde production (absorbance at OD 340 nm)” value (HIS-LSD1 [3]) read?
A: The value was “not”.

Q: And the “dimethylation level of H3 peptide after incubation with LSD1” value (HIS-LSD1 [4])?
A: Its value is “failed to reduce the dimethylation level at K9”.
